Experimental data published in publication PMC7195491.
pKd: −log10 of the molar value. Where “and” joins values, the source holds several entries; their conditions need not be identical. Equal entries are not always repeated. Where two headings read alike, the source gives them in different places.

What was measured:
[1] = target: DIP-γ (Drosophila melanogaster); test: SPR; Biacore T100, CM4 chip; DIPs and DIP mutants immobilised by amine coupling (760-980 RU), Dprs and Dpr mutants as analytes (three-fold dilution series, up to 81 μM, in some cases up to 27 or 9 μM); 25 °C; 10 mM Tris-HCl pH 7.2, 150 mM NaCl, 1 mM EDTA, 1 mg/mL BSA, 0.01% Tween-20; equilibrium fit, 1:1 model; for KDs > 300 μM a lower limit is listed
[2] = target: DIP-γ mutant at position 9 (Drosophila melanogaster); test: as above
[3] = target: DIP-γ (Dpr Interacting Protein gamma), extracellular region (Drosophila melanogaster) (UniProt Q9VAR6); test: SPR; Biacore T100, CM4 chip; DIPs and DIP mutants immobilised by amine coupling, Dprs as analytes; 25 °C; 10 mM Tris-HCl pH 7.2, 150 mM NaCl, 1 mM EDTA, 1 mg/mL BSA, 0.01% Tween-20; duplicate responses fit globally to a 1:1 model; Rmax fixed for KDs > 100 μM, lower limit listed for KDs > 300 μM
[4] = target: DIP-γ R15N {R86N}, extracellular region (Drosophila melanogaster) (UniProt Q9VAR6); test: as above
[5] = target: DIP-γ R22S {R112S}, extracellular region (Drosophila melanogaster) (UniProt Q9VAR6); test: as above
[6] = target: DIP-α (Dpr Interacting Protein alpha), extracellular region (Drosophila melanogaster) (UniProt Q9W4R3); test: as above
[7] = target: DIP-β (isoformG), extracellular region (Drosophila melanogaster); test: as above
[8] = target: DIP-γ (Dpr Interacting Protein gamma), extracellular region (Drosophila melanogaster) (UniProt Q9VAR6); test: as above; remark: listed apart in the source
[9] = target: DIP-α (Dpr Interacting Protein alpha), extracellular region (Drosophila melanogaster) (UniProt Q9W4R3); test: as above; remark: listed apart in the source
[10] = target: DIP-α A11T {A82T}, extracellular region (Drosophila melanogaster) (UniProt Q9W4R3); test: as above
[11] = target: DIP-α A7K {A78K}, extracellular region (Drosophila melanogaster) (UniProt Q9W4R3); test: as above
[12] = target: DIP-α G4A {G74A}, extracellular region (Drosophila melanogaster) (UniProt Q9W4R3); test: as above
[13] = target: DIP-α G4L {G74L}, extracellular region (Drosophila melanogaster) (UniProt Q9W4R3); test: as above
[14] = target: DIP-α I16A {I91A}, extracellular region (Drosophila melanogaster) (UniProt Q9W4R3); test: as above
[15] = target: DIP-α K10Q D29S {K81Q D129S}, extracellular region (Drosophila melanogaster) (UniProt Q9W4R3); test: as above
[16] = target: DIP-α K10Q G4S {K81Q G74S}, extracellular region (Drosophila melanogaster) (UniProt Q9W4R3); test: as above
[17] = target: DIP-α K10Q S32D {K81Q S133D}, extracellular region (Drosophila melanogaster) (UniProt Q9W4R3); test: as above
[18] = target: DIP-α K10Q {K81Q}, extracellular region (Drosophila melanogaster) (UniProt Q9W4R3); test: as above
[19] = target: DIP-α N19D {N94D}, extracellular region (Drosophila melanogaster) (UniProt Q9W4R3); test: as above

DIP-γ (Dpr Interacting Protein gamma), extracellular region (Drosophila melanogaster), sequence (Q9VAR6 entry or part of it): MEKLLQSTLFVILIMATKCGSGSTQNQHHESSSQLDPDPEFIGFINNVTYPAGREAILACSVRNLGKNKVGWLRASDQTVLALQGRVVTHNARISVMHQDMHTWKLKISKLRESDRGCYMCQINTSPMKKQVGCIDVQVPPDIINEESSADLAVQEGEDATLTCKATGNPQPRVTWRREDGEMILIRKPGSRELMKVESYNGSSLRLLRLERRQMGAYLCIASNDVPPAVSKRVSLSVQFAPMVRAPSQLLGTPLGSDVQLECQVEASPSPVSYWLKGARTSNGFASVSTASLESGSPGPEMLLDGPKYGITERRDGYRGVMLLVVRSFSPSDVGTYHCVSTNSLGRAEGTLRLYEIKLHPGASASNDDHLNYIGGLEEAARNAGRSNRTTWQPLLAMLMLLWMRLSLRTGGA
DIP-γ R15N {R86N}, extracellular region (Drosophila melanogaster), sequence (Q9VAR6 entry or part of it R15N {R86N} | R15N R86N): as the sequence (Q9VAR6 entry or part of it) above, with R86N counted along it
DIP-γ R22S {R112S}, extracellular region (Drosophila melanogaster), sequence (Q9VAR6 entry or part of it R22S {R112S} | R22S R112S): as the sequence (Q9VAR6 entry or part of it) above, with R112S counted along it

Row | Substance | pKd [1] | pKd [2] | pKd [3] | pKd [4] | pKd [5] | pKd [6] | pKd [7] | pKd [8] | pKd [9] | pKd [10] | pKd [11] | pKd [12] | pKd [13] | pKd [14] | pKd [15] | pKd [16] | pKd [17] | pKd [18] | pKd [19]
1 | Dpr11 (domain or fragment) | 5.10 | 4.43 |  |  |  |  |  |  |  |  |  |  |  |  |  |  |  |  | 
2 | Dpr11 (Defective proboscis extension response 11), extracellular region (from UniProt Q8MRE6 1-360) (domain or fragment) |  |  | 5.07 and 5.15 | 4.88 | 5.02 | < 3.30 | 3.57 | 5.15 |  |  |  |  |  |  |  |  |  |  | 
3 | Dpr10 (Defective proboscis extension response 10), extracellular region (from UniProt M9PF17 1-362) (domain or fragment) |  |  |  |  |  | 5.89 | 4.48 |  | 5.85 | 4.74 | 6.55 | 6.05 | 4.34 | 4.24 | 4.38 | 4.17 | 4.41 | 4.50 | 5.85
